Measured values reported in US20260008815A1, “CYCLIC PEPTIDE OR SALT THEREOF, AND USES THEREOF” (FUJIFILM Corporation, priority 2023, published 2026).
Bridge positions count the residues as written; N and C are the ends. Ends that are not written are not given here. COCH2 = acetyl group that carries the bridge

Target: T1, Recombinant Human FGFR2 alpha (IIIc) Fc Chimera Protein, CF (R&D systems, 712-FR-050) (human, UniProt P21802 22-377)
T1 construct: bought; not shown: Fc part of the chimera
Experiment: ELISA on plate-bound FGFR2-Fc
Protocol: First, 5 ng of Recombinant Human FGFR2 alpha (IIIc) Fc Chimera Protein (R&D systems, 712-FR-050) was immobilized in each well of a 96-well plate, and blocked with Pierce Protein-Free (PBS) Blocking Buffer (Thermo, 37572), and a peptide diluted with Can Get Signal Immunoreaction Enhancer Solution I (TOYOBO, NKB-101) was then added and reacted at room temperature for 3 hours. After washing with 0.05% Tween 20-containing phosphate buffered saline (PBS), an anti-Myc antibody (Cell Signaling, 14038S) diluted with Can Get Signal Immunoreaction Enhancer Solution II (TOYOBO, NKB-101) was added and reacted at room temperature for 2 hours. After washing with 0.05% Tween 20-containing PBS, SuperSignal ELISA Femto Substrate (Thermo, 37075) was added, and the luminescence amount was measured. The dose-response relationship was calculated from using the difference between the luminescence amount in the well in which FGFR was immobilized and the luminescence amount in the well in which FGFR was not immobilized, and the concentration of the peptide at the time of reaction, and the binding affinity to FGFR was evaluated according to the following evaluation criteria. The evaluation result preferably satisfies the evaluation criteria A, B, or C.

T1 sequence (P21802 22-377, change not shown): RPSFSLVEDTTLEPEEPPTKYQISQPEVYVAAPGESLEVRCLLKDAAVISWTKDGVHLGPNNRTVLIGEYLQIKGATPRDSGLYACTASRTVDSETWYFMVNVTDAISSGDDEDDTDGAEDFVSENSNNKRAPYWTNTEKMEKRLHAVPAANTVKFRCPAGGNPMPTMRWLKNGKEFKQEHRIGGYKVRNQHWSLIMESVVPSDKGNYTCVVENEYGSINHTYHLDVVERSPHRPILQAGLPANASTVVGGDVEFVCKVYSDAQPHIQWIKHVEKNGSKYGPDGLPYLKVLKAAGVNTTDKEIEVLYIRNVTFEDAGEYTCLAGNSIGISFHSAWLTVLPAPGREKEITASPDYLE

First: QCTYLAQYLVERYHLTK(COCH2)T (thioether 2-17) [cyclic peptide SEQ ID NO: 135]
Second: YCEENYLDPEQYQYFIYFK(COCH2)Y (thioether 2-19) [cyclic peptide SEQ ID NO: 131]
The “ELISA luminescence signal at 10 nmol/L peptide, relative to SEQ ID NO: 47 (=1)” value of the first is lower: 0.1 to 0.5 ratio for the first, at least 0.7 ratio for the second.

YCEGNYLDPEQYQYFIYFK(COCH2)Y (thioether 2-19) [cyclic peptide SEQ ID NO: 166] and GCEENYLDPEQYQYFIYFK(COCH2)Y (thioether 2-19) [cyclic peptide SEQ ID NO: 136] cannot be ordered by “ELISA luminescence signal at 10 nmol/L peptide, relative to SEQ ID NO: 47 (=1)” value: at least 0.7 ratio for the first, at least 0.7 ratio for the second.

SCEENYLDPEQYQYFIYFK(COCH2)Y (thioether 2-19) [cyclic peptide SEQ ID NO: 145] and ECEENYLDPEQYQYFIYFK(COCH2)Y (thioether 2-19) [cyclic peptide SEQ ID NO: 148] cannot be ordered by “ELISA luminescence signal at 10 nmol/L peptide, relative to SEQ ID NO: 47 (=1)” value: at least 0.7 ratio for the first, at least 0.7 ratio for the second.

YCEPNYLDPEQYQYFIYFK(COCH2)Y (thioether 2-19) [cyclic peptide SEQ ID NO: 167] and PCEENYLDPEQYQYFIYFK(COCH2)Y (thioether 2-19) [cyclic peptide SEQ ID NO: 137] cannot be ordered by “ELISA luminescence signal at 10 nmol/L peptide, relative to SEQ ID NO: 47 (=1)” value: at least 0.7 ratio for the first, at least 0.7 ratio for the second.

YCQENYLDPEQYQYFIYFK(COCH2)Y (thioether 2-19) [cyclic peptide SEQ ID NO: 160] and LCEENYLDPEQYQYFIYFK(COCH2)Y (thioether 2-19) [cyclic peptide SEQ ID NO: 138] cannot be ordered by “ELISA luminescence signal at 10 nmol/L peptide, relative to SEQ ID NO: 47 (=1)” value: at least 0.7 ratio for the first, at least 0.7 ratio for the second.

YCTENYLDPEQYQYFIYFK(COCH2)Y (thioether 2-19) [cyclic peptide SEQ ID NO: 162] and YCEINYLDPEQYQYFIYFK(COCH2)Y (thioether 2-19) [cyclic peptide SEQ ID NO: 169] cannot be ordered by “ELISA luminescence signal at 10 nmol/L peptide, relative to SEQ ID NO: 47 (=1)” value: at least 0.7 ratio for the first, at least 0.7 ratio for the second.

YCFENYLDPEQYQYFIYFK(COCH2)Y (thioether 2-19) [cyclic peptide SEQ ID NO: 156] and TCEENYLDPEQYQYFIYFK(COCH2)Y (thioether 2-19) [cyclic peptide SEQ ID NO: 146] cannot be ordered by “ELISA luminescence signal at 10 nmol/L peptide, relative to SEQ ID NO: 47 (=1)” value: at least 0.7 ratio for the first, at least 0.7 ratio for the second.

YCGENYLDPEQYQYFIYFK(COCH2)Y (thioether 2-19) [cyclic peptide SEQ ID NO: 151] and DCEENYLDPEQYQYFIYFK(COCH2)Y (thioether 2-19) [cyclic peptide SEQ ID NO: 147] cannot be ordered by “ELISA luminescence signal at 10 nmol/L peptide, relative to SEQ ID NO: 47 (=1)” value: at least 0.7 ratio for the first, at least 0.7 ratio for the second.

QCEENYLDPEQYQYFIYFK(COCH2)Y (thioether 2-19) [cyclic peptide SEQ ID NO: 144] and YCEFNYLDPEQYQYFIYFK(COCH2)Y (thioether 2-19 (inferred)) [cyclic peptide SEQ ID NO: 171] cannot be ordered by “ELISA luminescence signal at 10 nmol/L peptide, relative to SEQ ID NO: 47 (=1)” value: at least 0.7 ratio for the first, 0.5 to 0.7 ratio for the second.

FCEENYLDPEQYQYFIYFK(COCH2)Y (thioether 2-19) [cyclic peptide SEQ ID NO: 141] and YCYENYLDPEQYQYFIYFK(COCH2)Y (thioether 2-19) [cyclic peptide SEQ ID NO: 157] cannot be ordered by “ELISA luminescence signal at 10 nmol/L peptide, relative to SEQ ID NO: 47 (=1)” value: at least 0.7 ratio for the first, at least 0.7 ratio for the second.

YCRENYLDPEQYQYFIYFK(COCH2)Y (thioether 2-19) [cyclic peptide SEQ ID NO: 164] and YCLENYLDPEQYQYFIYFK(COCH2)Y (thioether 2-19) [cyclic peptide SEQ ID NO: 153] cannot be ordered by “ELISA luminescence signal at 10 nmol/L peptide, relative to SEQ ID NO: 47 (=1)” value: at least 0.7 ratio for the first, at least 0.7 ratio for the second.

YCELNYLDPEQYQYFIYFK(COCH2)Y (thioether 2-19) [cyclic peptide SEQ ID NO: 168] and YCNENYLDPEQYQYFIYFK(COCH2)Y (thioether 2-19) [cyclic peptide SEQ ID NO: 159] cannot be ordered by “ELISA luminescence signal at 10 nmol/L peptide, relative to SEQ ID NO: 47 (=1)” value: at least 0.7 ratio for the first, at least 0.7 ratio for the second.

WCEENYLDPEQYQYFIYFK(COCH2)Y (thioether 2-19) [cyclic peptide SEQ ID NO: 142] and YCVENYLDPEQYQYFIYFK(COCH2)Y (thioether 2-19) [cyclic peptide SEQ ID NO: 155] cannot be ordered by “ELISA luminescence signal at 10 nmol/L peptide, relative to SEQ ID NO: 47 (=1)” value: at least 0.7 ratio for the first, at least 0.7 ratio for the second.

NCEENYLDPEQYQYFIYFK(COCH2)Y (thioether 2-19) [cyclic peptide SEQ ID NO: 143] and YCSENYLDPEQYQYFIYFK(COCH2)Y (thioether 2-19) [cyclic peptide SEQ ID NO: 161] cannot be ordered by “ELISA luminescence signal at 10 nmol/L peptide, relative to SEQ ID NO: 47 (=1)” value: at least 0.7 ratio for the first, at least 0.7 ratio for the second.

YCPENYLDPEQYQYFIYFK(COCH2)Y (thioether 2-19) [cyclic peptide SEQ ID NO: 152] and HCEENYLDPEQYQYFIYFK(COCH2)Y (thioether 2-19) [cyclic peptide SEQ ID NO: 150] cannot be ordered by “ELISA luminescence signal at 10 nmol/L peptide, relative to SEQ ID NO: 47 (=1)” value: at least 0.7 ratio for the first, at least 0.7 ratio for the second.

VCEENYLDPEQYQYFIYFK(COCH2)Y (thioether 2-19) [cyclic peptide SEQ ID NO: 140] and ICEENYLDPEQYQYFIYFK(COCH2)Y (thioether 2-19) [cyclic peptide SEQ ID NO: 139] cannot be ordered by “ELISA luminescence signal at 10 nmol/L peptide, relative to SEQ ID NO: 47 (=1)” value: at least 0.7 ratio for the first, at least 0.7 ratio for the second.

YCIENYLDPEQYQYFIYFK(COCH2)Y (thioether 2-19) [cyclic peptide SEQ ID NO: 154] and RCEENYLDPEQYQYFIYFK(COCH2)Y (thioether 2-19) [cyclic peptide SEQ ID NO: 149] cannot be ordered by “ELISA luminescence signal at 10 nmol/L peptide, relative to SEQ ID NO: 47 (=1)” value: at least 0.7 ratio for the first, at least 0.7 ratio for the second.

YCEYNYLDPEQYQYFIYFK(COCH2)Y (thioether 2-19 (inferred)) [cyclic peptide SEQ ID NO: 172] and YCEVNYLDPEQYQYFIYFK(COCH2)Y (thioether 2-19) [cyclic peptide SEQ ID NO: 170] cannot be ordered by “ELISA luminescence signal at 10 nmol/L peptide, relative to SEQ ID NO: 47 (=1)” value: at least 0.7 ratio for the first, at least 0.7 ratio for the second.

YCWENYLDPEQYQYFIYFK(COCH2)Y (thioether 2-19) [cyclic peptide SEQ ID NO: 158] and YCDENYLDPEQYQYFIYFK(COCH2)Y (thioether 2-19) [cyclic peptide SEQ ID NO: 163] cannot be ordered by “ELISA luminescence signal at 10 nmol/L peptide, relative to SEQ ID NO: 47 (=1)” value: at least 0.7 ratio for the first, at least 0.7 ratio for the second.

Compared with YCHENYLDPEQYQYFIYFK(COCH2)Y (thioether 2-19) [cyclic peptide SEQ ID NO: 165], LCADQYDYLLQYVFWRTYK(COCH2)I (thioether 2-19) [cyclic peptide SEQ ID NO: 134] is lower in “ELISA luminescence signal at 10 nmol/L peptide, relative to SEQ ID NO: 47 (=1)” value: at least 0.7 ratio for the first, 0.1 to 0.5 ratio for the second.

HCNANFVYQQQYLYLLQYK(COCH2)L (thioether 2-19 (inferred)) [cyclic peptide SEQ ID NO: 43] and ECLGNYFSHEQYQYLLQYK(COCH2)I (thioether 2-19) [cyclic peptide SEQ ID NO: 133] cannot be ordered by “ELISA luminescence signal at 10 nmol/L peptide, relative to SEQ ID NO: 47 (=1)” value: 0.5 to 0.7 ratio for the first, at least 0.7 ratio for the second.
